For experiment [1], the target named is huTIM-3/his (human) (UniProt Q8TDQ0). Kind of experiment: Biacore, 2nd antibody injection; 1st antibody (competitor) ABTIM3-hum21. (In general: SPR reads the build-up and loss of mass on a sensor chip optically.)
Experiment [2] has the same target. Kind of experiment: Biacore, 1st antibody injection on hTIM-3/his captured by anti-His antibody.
Experiment [3] has the same target. Kind of experiment: Biacore, 2nd antibody injection; 1st antibody (competitor) huIgG1.
Experiment [4] has the same target. Briefly: Biacore, 2nd antibody injection; 1st antibody (competitor) ABTIM3-hum11.
Experiment [5] shares this target. Briefly: Biacore, 2nd antibody injection; 1st antibody (competitor) ABTIM3-hum03.

Among the data in patent publication US20250213684A1, “COMBINATION THERAPIES COMPRISING ANTIBODY MOLECULES TO TIM-3” (Novartis AG, priority 2015, published 2025) are change in RU values, retold here.

human IgG1 isotype control (antibody): the change in RU was 4.5 RU in the experiment with huTIM-3/his (human) [1]; 0.27 RU in the experiment with huTIM-3/his (human) [2]; 3.6 RU with huTIM-3/his (human) [3]; 3.8 RU with huTIM-3/his (human) [4]; 4.5 RU in the experiment with huTIM-3/his (human) [5].
